Reference: IntAct's records for PubMed 20600852

B1: Inhibitor of nuclear factor kappa-B kinase subunit beta (Homo sapiens), O14920 (parent)
chain: MSWSPSLTTQTCGAWEMKERLGTGGFGNVIRWHNQETGEQIAIKQCRQELSPRNRERWCLEIQIMRRLTHPNVVAARDVPEGMQNLAPNDLPLLAMEYCQGGDLRKYLNQFENCCGLREGAILTLLSDIASALRYLHENRIIHRDLKPENIVLQQGEQRLIHKIIDLGYAKELDQGSLCTSFVGTLQYLAPELLEQQKYTVTVDYWSFGTLAFECITGFRPFLPNWQPVQWHSKVRQKSEVDIVVSEDLNGTVKFSSSLPYPNNLNSVLAERLEKWLQLMLMWHPRQRGTDPTYGPNGCFKALDDILNLKLVHILNMVTGTIHTYPVTEDESLQSLKARIQQDTGIPEEDQELLQEAGLALIPDKPATQCISDGKLNEGHTLDMDLVFLFDNSKITYETQISPRPQPESVSCILQEPKRNLAFFQLRKVWGQVWHSIQTLKEDCNRLQQGQRAAMMNLLRNNSCLSKMKNSMASMSQQLKAKLDFFKTSIQIDLEKYSEQTEFGITSDKLLLAWREMEQAVELCGRENEVKLLVERMMALQTDIVDLQRSPMGRKQGGTLDDLEEQARELYRRLREKPRDQRTEGDSQEMVRLLLQAIQSFEKKVRVIYTQLSKTVVCKQKALELLPKVEEVVSLMNEDEKTVVRLQEKRQKELWNLLKIACSKVRGPVSGSPDSMNASRLSQPGQLMSQPSTASNSLPEPAKKSEELVAEAHNLCTLLENAIQDTVREQDQSFTALDWSWLQTEEEEHSCLEQAS

Variants of: B1
Settings: with keap1_human KEAP1, Q14145
keap1_human KEAP1, Q14145, sequence (Q14145 whole entry): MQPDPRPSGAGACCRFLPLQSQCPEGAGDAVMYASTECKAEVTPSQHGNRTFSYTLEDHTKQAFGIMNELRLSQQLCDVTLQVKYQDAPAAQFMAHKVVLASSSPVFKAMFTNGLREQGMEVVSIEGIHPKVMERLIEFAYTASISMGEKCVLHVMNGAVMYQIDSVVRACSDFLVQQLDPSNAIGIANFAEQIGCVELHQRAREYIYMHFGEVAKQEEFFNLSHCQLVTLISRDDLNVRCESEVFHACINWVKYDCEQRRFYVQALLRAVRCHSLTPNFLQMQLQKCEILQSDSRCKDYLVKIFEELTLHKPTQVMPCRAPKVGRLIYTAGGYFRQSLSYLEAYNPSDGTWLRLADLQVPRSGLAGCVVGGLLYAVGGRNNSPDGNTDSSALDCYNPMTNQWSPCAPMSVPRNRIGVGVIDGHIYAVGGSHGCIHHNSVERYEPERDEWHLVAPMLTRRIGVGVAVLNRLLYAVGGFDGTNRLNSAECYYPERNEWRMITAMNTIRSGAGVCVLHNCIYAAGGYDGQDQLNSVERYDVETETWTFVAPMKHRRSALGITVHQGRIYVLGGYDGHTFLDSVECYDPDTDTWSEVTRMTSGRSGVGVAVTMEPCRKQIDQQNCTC

**Q.** With E39G as the variant, how does the “effect of a mutation on the interaction” value read?
**A.** Its value is “decreasing interaction”.
